According to US20180037645A1 (Bristol-Myers Squibb, published 2018):
Where a chain is given by its changes, count along the chain named.

B1: IL-23 alanine shave mutant M5 (ligand, human)
chain 1: RAVPGGSSPAWTQCQQLSQKLCTLAWSAHPLVGAADLREEGDEETTNDVPHIQCGDGCDPQGLRDNSQFCLQRIHQGLIFYEKLLGSDIFTGAPSLAPASPVGQLHASLLGLSQLLQPEGHHWETQQIPSLSPSQPWQRLLLRFKILRSLQAFVAVAARVFAHGAATLSP
chain 2: IWELKKDVYVVELDWYPDAPGEMVVLTCDTPEEDGITWTLDQSSEVLGSGKTLTIQVKEFGDAGQYTCHKGGEVLSHSLLLLHKKEDGIWSTDILKDQKEPKNKTFLRCEAKNYSGRFTCWWLTTISTDLTFSVKSSRGSSDPQGVTCGAATLSAERVRGDNKEYEYSVECQEDSACPAAEESLPIEVMVDAVHKLKYENYTSSFFIRDIIKPDPPKNLQLKPLKNSRQVEVSWEYPDTWSTPHSYFSLTFCVQVQGKSKREKKDRVFTDKTSATVICRKNASISVRAQDRYYSSSWSEWASVPCS
B2: IL-23 alanine shave mutant M7 (ligand, human)
chain 1: B1 chain 1 with A34H, A35M, A93E, A97L, A99D, W123A, E124A, T125A, Q126A, Q127A
chain 2: B1 chain 2
B3: IL-23 alanine shave mutant M9 (ligand, human)
chain 1: B1 chain 1 with A34H, A35M, A93E, Q104A
chain 2: B1 chain 2
B4: IL-23 alanine shave mutant M10 (ligand, human)
chain 1: B1 chain 1 with D36A, A93E, A97L, A99D, F144A
chain 2: B1 chain 2

target: human IL-23Rα / human IL-12Rβ1 on BaF3 transfectants (human, UniProt Q5VWK5 24-629; P42701 24-662); assay: cell-based or functional assay
Sequence (Q5VWK5 24-629, chain 1 of 2, other chains not shown): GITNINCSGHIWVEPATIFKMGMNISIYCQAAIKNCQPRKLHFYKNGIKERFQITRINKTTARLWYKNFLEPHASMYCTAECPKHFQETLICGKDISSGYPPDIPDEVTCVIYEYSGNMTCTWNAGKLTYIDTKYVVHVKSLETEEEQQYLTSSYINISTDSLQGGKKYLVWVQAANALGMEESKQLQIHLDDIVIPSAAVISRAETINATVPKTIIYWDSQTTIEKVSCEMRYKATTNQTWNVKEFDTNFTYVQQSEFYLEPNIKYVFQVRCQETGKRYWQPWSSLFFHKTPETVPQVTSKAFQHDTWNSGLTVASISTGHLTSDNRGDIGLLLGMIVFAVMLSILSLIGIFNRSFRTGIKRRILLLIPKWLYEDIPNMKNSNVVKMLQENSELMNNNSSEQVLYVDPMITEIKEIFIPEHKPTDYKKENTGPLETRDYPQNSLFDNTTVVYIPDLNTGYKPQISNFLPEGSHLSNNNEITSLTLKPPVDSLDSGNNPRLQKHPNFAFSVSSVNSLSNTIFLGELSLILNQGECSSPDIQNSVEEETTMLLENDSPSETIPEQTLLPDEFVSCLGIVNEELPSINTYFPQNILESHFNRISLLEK

Binder | EC50, pSTAT3 in BaF3/huIL-23Rα/huIL-12Rβ1 transfectants [pM]
B1 | 26
B2 | 21
B3 | 33
B4 | 19
